# The RNAGym collection of RNA variant scans (doi:10.1101/gr.219683.116)
# B1: mRNA-splicing (parent)
# chain: AGUUGCUGCUGGGAGCUCCAGCACAGUGAAAUGGACAGAAGGGCAGAGCAA
# Variants of: B1
# Assay: exon inclusion enrichment index; higher = more inclusion; WT1 exon 5 minigene, HEK293
row,Variant,exon inclusion enrichment index
1,G5A C6G U7G C9A G41A G42U,0.00291
2,C6A U7C C9A U10C G33C,3.45
3,C6A U7C C9A U10C A25G G26C,4.03
4,G5A C6U U7A G8U C9A U10C,0.4
5,G5C C6G U7C U10C C36U A37C,2.78
6,G5C C6G U7C U10C G41A G42A,2.54
7,G5A U7C G8A U10G G11C,2.55
8,G5C C6U G8C C9U U10C U32A,1.46
9,G2A G5C C6U G8C C9U U10C,2.9
10,U3G U4A,0.0184
11,G5C C6A U7C G8A U10A C19A A20C,0.0294
12,G28C A29U,0.0556
13,G5A U7C G8A U10C A45C G46C,1.61
14,G5U G8U C9U G13A,0.0771
15,G5A C6G U7G C9A U27G G28U,0.0007
16,C6A U7A C9A U10A C19U A20G,0.121
17,G5C C6A U7C G8A U10A C24A A25U,0.146
18,C18G C19A,2.92
19,C6A U7A C9A U10C,2.59
20,G5A C6U G8A U10C,0.819
21,G5A C6U U7A G8U C9A G42U G43A,0.282
22,C6A U7C U10C,3.14
23,G5U G8A C9U,0.205
24,G5A C6G U7G C9G U10G,0.0568

row,Variant,exon inclusion enrichment index
1,G5U G8U C9U U17A C18A,0.0626
2,G5A C6U U7A G8U C9A C19U A20G,0.00852
3,G5C C6U G8C C9U U10C A30C A31C,2.9
4,C6A U7A C9A U10A A14C G15C,0.452
5,G5U G8U C9U A39U,0.00188
6,C6A U7A C9A U10A A14U G15C,0.336
7,G5A C6G U7G C9A A29C,0.00344
8,G11C G12A,0.472
9,G5C C6G U7C U10C G42U G43C,2.28
10,G5A U7C G8A U10C G11U G12U,0.337
11,G5C C6G U7C U10C A31G U32A,5.21
12,C6A U7A G8C C9A U10A,0.471
13,G5A C6G U7G C9A A14U G15A,0.000793
14,G5C C6G U7C U10C U32A G33C,3.67
15,G5A C6G U7G C9A G34C A35G,0.00232
16,G5C C6U G8C C9U U10C G38C A39C,1.84
17,G5A C6U U7A G8U C9A U27C,0.399
18,G2U U3A G5C C6U G8C C9U U10C,3.36
19,G5C C6G U7C U10C A39G A40G,0.367
20,U3A U4G C6A U7C C9A U10C,1.54
21,G5C C6A U7C G8A U10A C18U C19A,0.00114
22,G5U G8U C9U C44U A45U,0.0921
23,G5A C6U U7A G8U C9A A40C G41C,0.455
24,G5C C6G U7C U10C C18G C19G,4.32

row,Variant,exon inclusion enrichment index
1,C6A U7C C9A U10C A14C G15C,1.7
2,G5A C6U U7A G8U C9A A35C C36A,0.0286
3,C6A U7C C9A U10C U17G C18G,2.57
4,G5C C6U G8C C9U U10C G13U A14C,0.936
5,G5C C6U G8C C9U U10C G13U A14U,0.592
6,G5A U7C G8A U10C G43A C44G,4.11
7,C6A U7C C9A U10C C19G,3.61
8,G5A C6U U7A G8U C9A C16G U17G,0.00515
9,C6A U7C C9A U10C G34A A35C,2.52
10,A29U A30G,0.237
11,G5U G8U C9U A29G A30C,0.035
12,G5C C6G U7C U10C A47C G48U,2.62
13,G5C C6A U7C G8A U10A G28U A29G,0.0731
14,G5U G8U C9U A23G,0.252
15,G5A C6U U7A G8U C9A A47U,0.0348
16,G5C C6G U7C U10C G43C C44U,3.09
17,G5C C6G U7C U10C G43C C44G,6.55
18,G5C C6A U7C G8A U10A A30G A31C,0.00678
19,C6A U7C C9A U10C G13U A14G,2.11
20,C6A U7C C9A U10C G13U A14C,2.46
21,G5C C6A U7C G8A U10A G46C A47U,0.141
22,G5C C6G U7C G8A C9A U10C,3.14
23,C6A U7C C9A U10C A37C G38A,2.46
24,C6A U7A C9A U10A A47G G48U,0.0862

row,Variant,exon inclusion enrichment index
1,G5C C6A U7C G8A U10A G21A C22G,0.156
2,G5C C6G U7C U10C A23G,3.57
3,G5C C6G U7C U10C A31U U32C,3.76
4,G5A U7C G8A U10C G38U A39C,1.83
5,G5C C6A G8A U10A,0.0612
6,G5C C6U G8C C9U U10C A23U,1.39
7,G5U G8U C9U C36A,0.0987
8,G5C C6U G8C C9U U10C G12U G13U,0.0261
9,C6A U7A C9A U10A A45U,1.14
10,G5C C6A U7C G8A U10A A47C G48A,0.0538
11,G5U G8U C9U A20C,0.124
12,G5C C6A U7C G8A U10A A30C A31G,0.372
13,A23G C24A,1.56
14,G5C C6U G8C C9U U10C G41A,1.33
15,G5C U7G U10C,1.34
16,G5A U7C G8A U10C G28U A29C,1.47
17,G5C C6U G8C C9U U10C A14G,1.2
18,U10C,2.72
19,G5C C6U G8C C9U U10C G41C G42A,2
20,G5U G8U C9U C18A,0.0931
21,C6U U7C G8A U10C,2.38
22,G5U C6G U7C U10C,2.34
23,G46U A47U,0.237
24,G5C C6G U7C U10C G33U G34A,0.696

row,Variant,exon inclusion enrichment index
1,G2C U3G G5U G8U C9U,0.38
2,G5C C6G U7C U10C A20G G21U,2.65
3,C6A U7A C9A U10A G28C A29U,0.358
4,C6A U7A C9A U10A G28C A29C,0.683
5,G5U G8U C9U C16G U17A,0.115
6,G5C C6G U7C U10C G43A,5.08
7,G5A C6G U7G G8A C9A,0.00786
8,G5U G8U C9U U17A,0.136
9,G5U G8U C9U A23G C24A,0.532
10,G5A U7C G8A U10C A37G G38C,2.62
11,G5A C6G U7G C9A G34A A35C,0.00134
12,C6A U7C C9A U10C A37G G38C,3.21
13,U7C G8A U10C,2.58
14,G5C C6G U7C U10C G13A A14C,3.48
15,G5C C6U G8C C9U U10C A45G,3.56
16,G5A C6U U7A G8U C9A A37C,0.285
17,G5U G8U C9U U10C G11U,0.279
18,G5A C6U U7A G8U C9A G34C A35C,0.00243
19,G2U U3G G5C C6G U7C U10C,5.1
20,G5A U7C G8A U10C G12C,1.57
21,G5A C6U U7A G8U C9A G34A A35C,0.0538
22,C6A U7C G8C C9U U10C,2.28
23,G5U G8U C9U A31G U32C,0.678
24,G5U G8U C9U A31G U32A,1.22

row,Variant,exon inclusion enrichment index
1,G5A C6U U7A G8U C9A C22G,0.0616
2,G5A C6G U7G C9A C16G U17C,0.00106
3,G5U G8U C9U A40U G41U,0.0547
4,G5A C6G U7G C9A G12U,0.00152
5,G41A G42A,0.141
6,G41A G42C,0.419
7,G5A C6U U7A G8U C9A A37G G38U,0.0165
8,G5A U7C C9G U10C,2.65
9,G5A C6G U7G C9A G28A A29C,0.00171
10,U10C G11C,1.66
11,G5C C6A U7C G8A U10A A25C G26U,0.241
12,G5A C6U U7A G8U C9A C44U A45C,0.1
13,U10A G11C,2.77
14,G5A C6G U7G C9A A47C G48C,0.00224
15,G5C C6A U7C G8A U10A G15U C16U,0.0659
16,C6A U7A C9A U10A A45C G46A,0.367
17,G5C C6A U7G G8C C9U U10C,1.36
18,G5A C6U U7C C9A U10C,2.91
19,G5A U7C G8U C9U U10C,1.17
20,G5C C6G U7C U10C A25G G26U,4.09
21,U3A U4G G5A C6G U7G C9A,0.018
22,G5A C6U U7A G8U C9A G13U A14G,0.00922
23,C6A U7C G8U C9A U10A,0.176
24,C6A U7C C9A U10C A23G C24A,4.13

row,Variant,exon inclusion enrichment index
1,G5A U7C G8A U10C U27G G28A,2.37
2,C6A U7A C9A U10A A35U,0.119
3,G5A U7C G8A U10C G11A,1.34
4,U7G C9A U10A,1
5,C6A U7A C9A U10A A37U G38A,0.258
6,G5A U7C G8A U10C U27C G28A,2.31
7,G5A C6G U7G U10A,0.00101
8,G5C C6G U7C U10C G26C U27A,3.33
9,G5U G8U C9U C22G,0.183
10,G5U G8U C9U C22U,0.095
11,G5A U7C G8A U10C U32A G33C,2.91
12,G5A C6U U7A G8A C9U,0.0446
13,C6A U7A C9A U10A U32A G33A,0.234
14,G5U G8U C9U C16G,0.0374
15,G2C U3C G5C C6U G8C C9U U10C,1.91
16,A35C C36U,0.00835
17,G5U G8U C9G U10A,0.128
18,G5C C6U G8C C9U U10C C36U A37G,1.74
19,G5C C6U G8C C9U U10C G41A G42A,1.54
20,G5C C6U G8C C9U U10C G41A G42C,2.67
21,C6A U7C C9A U10C A20U G21U,2.83
22,C6A U7C C9A U10C A20U G21C,3.73
23,G5C C6G U7C U10C A40U G41A,0.26
